Where no end group is shown, it is not given here. [ ]: non-standard residue; d: D form. The star is where a group is joined. pNA = O=[N+]([O-])c1ccc(N*)cc1; AlaP = not defined here; Ahx = NCCCCCC(=O)O; pentyl = CCCCC*
Key:
Format in all cases: biochemical
[1] = molecular target: T1, Elastase (Homo sapiens, UniProt P08246); assay: Protease inhibition assay, second order rate constant kobs/[I] (method of Tian and Tsou); conditions: n.s where no significant inhibition
T1 sequence (P08246 30-267): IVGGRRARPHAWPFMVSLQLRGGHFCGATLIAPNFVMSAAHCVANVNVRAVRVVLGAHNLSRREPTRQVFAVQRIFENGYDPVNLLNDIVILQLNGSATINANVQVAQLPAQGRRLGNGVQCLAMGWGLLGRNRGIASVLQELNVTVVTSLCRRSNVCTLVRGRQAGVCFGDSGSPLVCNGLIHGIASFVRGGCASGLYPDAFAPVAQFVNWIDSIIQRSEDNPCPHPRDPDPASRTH
Procedure: (§1) The inactivation of proteases by substrate analog inhibitors in the presence of the substrate by competition for the enzyme-binding site, was measured by the method of Tian and Tsou (17). In this system, product formation in the presence of an irreversible inhibitor approaches an asymptote, as described by
(§2) log([P∞]−[P])=log [P∞]−0.43A[Y]t
(§3) where [P∞] is the concentration of product formed at time approaching infinity, [P] is the concentration of product at time t, [Y] is the inhibitor concentration, and A is the apparent inhibition rate constant in the presence of the substrate. A is given by
(§4) where k+0 is the rate constant for association of the inhibitor with the enzyme, K^−1 is the inverted Michaelis constant, and [S] the substrate concentration. The apparent inhibition rate constant A is the slope of a plot of log([P∞]−[P]) against t, to give the second-order rate constant of inhibition k+0

[2] = molecular target: T2, Proteinase 3 (Homo sapiens, UniProt P24158); assay: as above; conditions: for kobs/I range: PR3; for effect of P5 group on kobs/I: ammonium, Trp or Ile at P5
T2 sequence (P24158 28-248): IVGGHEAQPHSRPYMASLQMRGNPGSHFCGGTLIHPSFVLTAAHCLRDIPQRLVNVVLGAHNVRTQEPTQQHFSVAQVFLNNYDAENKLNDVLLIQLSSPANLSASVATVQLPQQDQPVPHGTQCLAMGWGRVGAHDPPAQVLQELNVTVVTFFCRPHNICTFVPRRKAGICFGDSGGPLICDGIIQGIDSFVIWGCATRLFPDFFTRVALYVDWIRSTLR
Procedure: The compounds of the invention are advantageously selective inhibitors of PR3. […] As described under the Examples below (see PR3 inhibition assay), and as is generally known, efficacy of particular inhibitors against a target protease, for example, recombinant human PR3, is determined by combining the target with a substrate (for example Suc-AanV-SBzI), both in the absence of the inhibitor and in the present of different concentrations of such inhibitor to be tested. Typically, the efficacy of irreversible inhibitors are measured in terms of the second order rate constant of inhibition value (11) or kobs/l. Preferred inhibitors of the invention have typically a kobs/I of more than 10 M^−1s^−1, preferably more than 100 M^−1s^−1, and more preferably of more than […].
as §1, §2, §3, §4

[3] = molecular target: T3, HNE (Homo sapiens, UniProt P08246); assay: Hydrolysis of paranitroanilide substrates, kcat/KM
T3 sequence (P08246 30-267): T1 sequence (P08246 30-267)
Procedure: (§5) Then we used the peptidyl sequences DYDA- and PYDA- to construct two paranitroanlide substrates bearing this sequence from P4 to P1. Ac-DYDA-pNA and Ac-PYDA-pNA were assayed with purified PR3 and HNE and the specificity constants kcat/Km were determined. […] We then constructed phosphonate inhibitors with the same peptidyl sequence i.e. Ac-DYDA^P(Oph-p-Cl)2 and Ac-PYDA^P(Oph-p-Cl)2.

[4] = molecular target: T4, wtPR3 (Homo sapiens, UniProt P24158); assay: Hydrolysis of paranitroanilide substrates, kcat/KM
T4 sequence (P24158 28-248): T2 sequence (P24158 28-248)
Procedure: as §5

| Substance | Elastase kobs/[I] [1] | Proteinase 3 kobs/[I] [2] [M⁻¹ s⁻¹] | kobs/I range [2] | cleavage by purified HNE [3] | cleavage by purified PR3 [4] | effect of P5 group on kobs/I [2] |
| --- | --- | --- | --- | --- | --- | --- |
| Ac-Ahx-Pro-Tyr-Asp-Ala^P(O—C6H4-4-Cl)2 ({Ac-Ahx}-PYD[AlaP]; not fully specified (C-terminus); printed as Ac-Ahx-Pro-Tyr-Asp-Ala^P(O—C6H4-4-Cl)2; reading uncertain; also: C-terminal Ala as phosphonate analogue (Ala^P)) [Compound 9] | n.s | 2159 ± 235 | ~10^3 M^−1s^−1 |  |  |  |
| Ac-DYDA-pNA |  |  |  | did not cleave | rapidly cleaved |  |
| Ac-Ile-Pro-Tyr-Asp-Ala^P(O—C6H4-4-Cl)2 (Ac-IPYD[AlaP]; not fully specified (C-terminus); printed as Ac-Ile-Pro-Tyr-Asp-Ala^{P}(O—C₆H₄-4-Cl)₂; reading uncertain; also: C-terminal Ala as phosphonate analogue (Ala^P)) [Compound 12] | 15.1 ± 1.6 M⁻¹ s⁻¹ | 46 ± 0.1 |  |  |  | did not significantly increase |
| Ac-PYDA-pNA |  |  |  | did not cleave | rapidly cleaved |  |
| Ac-Pro-Tyr-Phe-Ala^P(O—C6H4-4-Cl)2 (Ac-PYF[AlaP]; not fully specified (C-terminus); printed as Ac-Pro-Tyr-Phe-Ala^{P}(O—C₆H₄-4-Cl)₂; reading uncertain; also: C-terminal Ala as phosphonate analogue (Ala^P)) [Compound 7] | n.s | 2.1 ± 0.2 |  |  |  |  |
| Ac-Trp-Pro-Tyr-Asp-Ala^P(O—C6H4-4-Cl)2 (Ac-WPYD[AlaP]; not fully specified (C-terminus); printed as Ac-Trp-Pro-Tyr-Asp-Ala^{P}(O—C₆H₄-4-Cl)₂; reading uncertain; also: C-terminal Ala as phosphonate analogue (Ala^P)) [Compound 11] | n.s | 15 ± 0.1 |  |  |  | did not significantly increase |
| Biotin-Asp-Tyr-Asp-Ala^P(O—C6H4-4-Cl)2 [Compound 3] | n.s | 18 ± 2.8 |  |  |  |  |
| Biotin-PEG3000-Pro-Tyr-Asp-Ala^P(O—C6H4-4-Cl)2 [Compound 13] | 46.5 M⁻¹ s⁻¹ | 1163 ± 0.1 |  |  |  |  |
| Biotin-Pro-Tyr-Asp-Avl^P(O—C6H4-4-Cl)2 [Compound 5] | n.s | 33360 ± 4150 |  |  |  |  |
| Biotin-Val-Tyr-Asp-Ala^P(O—C6H4-4-Cl)2 [Compound 6] | n.s | 17396 ± 835 |  |  |  |  |
| CH3(CH2)4-Pro-Tyr-Asp-Ala^P(O—C6H4-4-Cl)2 (pentyl-PYD[AlaP]; not fully specified (C-terminus); printed as CH3(CH2)4-Pro-Tyr-Asp-Ala^P(O—C6H4-4-Cl)2; reading uncertain; also: C-terminal Ala as phosphonate analogue (Ala^P)) [Compound 8] | n.s | 4418 ± 329 | ~10^3 M^−1s^−1 |  |  |  |
| ^+H2N-Pro-Tyr-Asp-Ala^P(O—C6H4-4-Cl)2 (H-PYD[AlaP]; not fully specified (C-terminus); printed as ^+H2N-Pro-Tyr-Asp-Ala^P(O—C6H4-4-Cl)2; reading uncertain; also: C-terminal Ala as phosphonate analogue (Ala^P)) [Compound 10] | n.s | 4.7 ± 0.5 |  |  |  | did not significantly increase |

Source: patent publication US20160257710A1, “SELECTIVE INHIBITORS OF PROTEINASE 3” (INSERM (INSTITUT NATIONAL DE LA SANTÉ ET LA RECHERCHE …, priority 2013, published 2016)
